T1: rat ADPRibase-Mn (Rattus norvegicus, UniProt Q5M886)
T1 construct: gene Adprm
T1 sequence (Q5M886 1-337): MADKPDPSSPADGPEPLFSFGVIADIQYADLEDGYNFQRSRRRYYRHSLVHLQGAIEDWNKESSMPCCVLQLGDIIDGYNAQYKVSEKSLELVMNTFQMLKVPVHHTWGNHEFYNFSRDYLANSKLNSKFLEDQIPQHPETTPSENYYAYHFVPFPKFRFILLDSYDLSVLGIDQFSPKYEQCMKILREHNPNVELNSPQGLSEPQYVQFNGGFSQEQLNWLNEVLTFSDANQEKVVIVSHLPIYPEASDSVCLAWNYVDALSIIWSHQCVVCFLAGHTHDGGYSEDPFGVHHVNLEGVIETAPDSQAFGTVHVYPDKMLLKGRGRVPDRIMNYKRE

B1: zebrafish ADPRibase-Mn (Danio rerio; M1S) (protein)
chain: SEDPVFTFGLIADVQYADIEDGENYLRTRRRYYRGSADLLRDAVLQWRRERVQCVVQLGDIIDGHNRRRDASDRALDTVMAELDACSVDVHHVWGNHEFYNFSRPSLLSSRLNSAQRTGTDTGSDLIGDDIYAYEFSPAPNFRFVLLDAYDLSVIGREEESEKHTHSWRILTQHNHNLQDLNLPPVSVGLEQRFVKFNGGFSEQQLQWLDAVLTLSDHKQERVLIFSHLPVHPCAADPICLAWNHEAVLSVLRSHQSVLCFIAGHDHDGGRCTDSSGAQHITLEGVIETPPHSHAFATAYLYEDRMVMKGRGRVEDLTITYS
notes: full-length ORF (BC054642 region 60-1028), N-terminal Met replaced by Ser; 8-His-MBP-TEV fusion expressed in E. coli BL21, tag cut with TEV protease
B2: zebrafish ADPRibase-Mn (Danio rerio; H97A/M1S) (protein)
chain: SEDPVFTFGLIADVQYADIEDGENYLRTRRRYYRGSADLLRDAVLQWRRERVQCVVQLGDIIDGHNRRRDASDRALDTVMAELDACSVDVHHVWGNAEFYNFSRPSLLSSRLNSAQRTGTDTGSDLIGDDIYAYEFSPAPNFRFVLLDAYDLSVIGREEESEKHTHSWRILTQHNHNLQDLNLPPVSVGLEQRFVKFNGGFSEQQLQWLDAVLTLSDHKQERVLIFSHLPVHPCAADPICLAWNHEAVLSVLRSHQSVLCFIAGHDHDGGRCTDSSGAQHITLEGVIETPPHSHAFATAYLYEDRMVMKGRGRVEDLTITYS
notes: as for B1

What was measured:
rat ADPRibase-Mn = target: T1, rat ADPRibase-Mn; experiment: hydrolysis assay; format: biochemical; conditions: behaves as with the zebrafish enzyme; no number given
[1] = substrate: N=c1c2ncn3c2ncn1[C@@H]1O[C@H](COP(=O)(O)OP(=O)(O)OC[C@H]2O[C@@H]3[C@H](O)[C@@H]2O)[C@@H](O)[C@H]1O; experiment: estimated from inhibition of ADP-ribose hydrolysis by cADPR (equation II); format: biochemical, Danio rerio; conditions: competitive inhibition assumed, Ki taken as Km; 160 µM cADPR against 80 µM ADP-ribose
Description: estimated from inhibition of ADP-ribose hydrolysis by cADPR (equation II) on zebrafish ADPRibase-Mn

[2] = substrate: NCCOP(=O)(O)OP(=O)(O)OC[C@H]1O[C@@H](n2ccc(N)nc2=O)[C@H](O)[C@@H]1O; experiment: phosphate release coupled to alkaline phosphatase; Michaelis-Menten fit; format: biochemical, Danio rerio; conditions: 5 mM MnCl2, 50 mM Tris-HCl pH 7.5
Description: (§1) phosphate release coupled to alkaline phosphatase; Michaelis-Menten fit on zebrafish ADPRibase-Mn

[3] = substrate: Nc1ncnc2c1ncn2[C@@H]1O[C@H](CO)[C@H]2OP(=O)(O)O[C@H]21; experiment: as above; format: biochemical, Danio rerio; conditions: 5 mM MnCl2, 50 mM Tris-HCl pH 7.5, total activity (P-O2′ plus P-O3′ hydrolysis)
Description: as §1

[4] = substrate: Nc1ccn([C@@H]2O[C@H](COP(=O)(O)OP(=O)(O)OC[C@H](O)CO)[C@@H](O)[C@H]2O)c(=O)n1; experiment: as above; format: biochemical, Danio rerio; conditions: 5 mM MnCl2, 50 mM Tris-HCl pH 7.5
Description: as §1

[5] = substrate: C[N+](C)(C)CCOP(=O)(O)OP(=O)([O-])OC[C@H]1O[C@@H](n2ccc(N)nc2=O)[C@H](O)[C@@H]1O; experiment: as above; format: biochemical, Danio rerio; conditions: 5 mM MnCl2, 50 mM Tris-HCl pH 7.5
Description: as §1

[6] = substrate: Nc1ncnc2c1ncn2[C@@H]1O[C@H](COP(=O)(O)OP(=O)(O)O)[C@@H](O)[C@H]1O; experiment: as above; format: biochemical, Danio rerio; conditions: 5 mM MnCl2, 50 mM Tris-HCl pH 7.5
Description: as §1

Molecule | hydrolysis assay (rat ADPRibase-Mn) | Km [1] | kcat [1] | kcat/Km [1] | Km [2] | kcat [2] | kcat/Km [2] | Km [3] | kcat [3] | kcat/Km [3] | Km [4] | kcat [4] | kcat/Km [4] | Km [5] | kcat [5] | kcat/Km [5] | Km [6] | kcat [6] | kcat/Km [6]
Nc1ncnc2c1ncn2[C@@H]1O[C@H](CO)[C@H]2OP(=O)(O)O[C@H]21 [2′,3′-cAMP] | we did it now and found them to behave as with the zebrafish enzyme | – | – | – | – | – | – | – | – | – | – | – | – | – | – | – | – | – | –
B1 | – | 0.19 ± 0.025 mM | 0.005 s⁻¹ | 28 ± 3 M⁻¹ s⁻¹ | 3.9 ± 1.3 mM | 125 s⁻¹ | 32000 ± 300 M⁻¹ s⁻¹ | 0.76 ± 0.05 mM | 16.9 s⁻¹ | 22000 ± 3000 M⁻¹ s⁻¹ | 2 ± 1.4 mM | 95.6 s⁻¹ | 48000 ± 700 M⁻¹ s⁻¹ | 12 ± 3 mM | 67.2 s⁻¹ | 5600 ± 800 M⁻¹ s⁻¹ | 2.65 ± 1.3 mM | 1.8 s⁻¹ | 660 ± 70 M⁻¹ s⁻¹
B2 | – | – | – | – | 31 ± 0.8 mM | 2.1 s⁻¹ | 70 ± 20 M⁻¹ s⁻¹ | 1.7 ± 0.24 mM | 29.7 s⁻¹ | 18000 ± 1000 M⁻¹ s⁻¹ | 6.3 ± 0.9 mM | 0.8 s⁻¹ | 120 ± 30 M⁻¹ s⁻¹ | 43 ± 8 mM | 0.8 s⁻¹ | 20 ± 5 M⁻¹ s⁻¹ | 19 ± 0.7 mM | 0.2 s⁻¹ | 11 ± 5 M⁻¹ s⁻¹
